PMC7055370, “Structure of the MICU1–MICU2 heterodimer provides insights into the gatekeeping threshold shift” (IUCrJ, 2020)

Molecular target: the molecule itself
Test: crystal structure; apo MICU1 ΔC - MICU2 ΔC (SeMet) mixed at a 1:1 molar ratio; crystals at 20°C in 20%(w/v) PEG 3350, 0.2 M ammonium citrate tribasic pH 7.5; 3.1 Å, SAD

B1: human MICU2 ΔC helix (residues 84–401), selenomethionine derivative (domain or fragment, UniProt Q8IYU8 84-401, looked up)
chain: SLRKQRFMQFSSLEHEGEYYMTPRDFLFSVMFEQMERKTSVKKLTKKDIEDTLSGIQTAGCGSTFFRDLGDKGLISYTEYLFLLTILTKPHSGFHVAFKMLDTDGNEMIEKREFFKLQKIISKQDDLMTVKTNETGYQEAIVKEPEINTTLQMRFFGKRGQRKLHYKEFRRFMENLQTEIQEMEFLQFSKGLSFMRKEDFAEWLLFFTNTENKDIYWKNVREKLSAGESISLDEFKSFCHFTTHLEDFAIAMQMFSLAHRPVRLAEFKRAVKVATGQELSNNILDTVFKIFDLDGDECLSHEEFLGVLKNRMHRGLWV
modifications: selenomethionine (SeMet) derivative
notes: human MICU2 (mitochondrial calcium uptake protein 2), residues 84-401, without the C-terminal helix; pCold II vector with 6x His tag at the N terminus; also called mitochondrial calcium uptake protein 2; source: E. coli B834(DE3), purified (Ni-IDA, SEC); not shown: His6, N-terminal, kept
Does B1 bind?
Result: binds
